Measurements as given in publication PMC4175184, “Structure and function of cohesin’s Scc3/SA regulatory subunit” (Febs Letters, 2014).

Biological target: T1, S. cerevisiae Scc3, full-length protein (S. cerevisiae, UniProt P40541 1-1150)
T1 construct: Scc3, S. cerevisiae (UniProt SCC3_YEAST, P40541), full-length / intact protein; also called Sc Scc3; intact Scc3 protein; source: E. coli BL21(DE3) RIPL, purified (Talon beads, Superdex 200)
T1 sequence (looked up): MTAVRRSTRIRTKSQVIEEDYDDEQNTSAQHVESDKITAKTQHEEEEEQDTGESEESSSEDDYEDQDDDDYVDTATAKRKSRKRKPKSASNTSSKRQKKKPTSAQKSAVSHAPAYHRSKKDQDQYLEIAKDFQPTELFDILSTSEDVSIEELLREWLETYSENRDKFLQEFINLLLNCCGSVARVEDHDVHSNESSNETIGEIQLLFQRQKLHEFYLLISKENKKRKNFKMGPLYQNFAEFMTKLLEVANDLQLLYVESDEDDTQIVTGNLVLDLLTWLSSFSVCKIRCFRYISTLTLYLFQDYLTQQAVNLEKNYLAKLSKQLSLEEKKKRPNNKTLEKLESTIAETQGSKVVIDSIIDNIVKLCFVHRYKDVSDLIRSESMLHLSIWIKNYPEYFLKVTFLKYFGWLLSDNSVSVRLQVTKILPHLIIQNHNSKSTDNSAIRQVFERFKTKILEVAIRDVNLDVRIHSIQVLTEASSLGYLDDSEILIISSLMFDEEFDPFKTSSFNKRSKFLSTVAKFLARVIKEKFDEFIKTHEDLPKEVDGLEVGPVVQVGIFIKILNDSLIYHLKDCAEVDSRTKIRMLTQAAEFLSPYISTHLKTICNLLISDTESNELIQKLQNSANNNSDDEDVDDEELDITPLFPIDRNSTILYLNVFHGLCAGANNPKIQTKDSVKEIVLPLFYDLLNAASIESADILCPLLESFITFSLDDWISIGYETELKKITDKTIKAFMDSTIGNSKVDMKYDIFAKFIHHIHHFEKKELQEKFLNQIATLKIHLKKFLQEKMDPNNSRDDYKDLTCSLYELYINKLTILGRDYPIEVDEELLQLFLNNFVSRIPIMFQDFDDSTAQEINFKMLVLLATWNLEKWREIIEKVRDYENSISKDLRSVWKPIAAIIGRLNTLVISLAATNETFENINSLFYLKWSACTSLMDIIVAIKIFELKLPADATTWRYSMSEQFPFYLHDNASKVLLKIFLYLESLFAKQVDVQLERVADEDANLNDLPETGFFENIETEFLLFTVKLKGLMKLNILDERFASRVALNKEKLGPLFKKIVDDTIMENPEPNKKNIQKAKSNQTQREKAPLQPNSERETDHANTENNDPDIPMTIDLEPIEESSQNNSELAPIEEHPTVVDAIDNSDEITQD
Experiment: pull-down; two differently tagged versions of Scc1 (259–451) in the presence of intact Scc3 protein; 5 μM of each in TAP buffer, resin 2 h at 4 °C (Fig. 2-fig^1C)
Details: both partners purified

binding result: binds
B1: S. cerevisiae Scc1 (259–451), two differently tagged versions (domain or fragment, UniProt Q12158 259-451, looked up)
chain: DDDNSVEQGRRLGESIMSEEPTDFGFDLDIEKEAPAGNIDTITDAMTESQPKQTGTRRNSKLLNTKSIQIDEETENSESIASSNTYKEERSNNLLTPQPTNFTTKRLWSEITESMSYLPDPILKNFLSYESLKKRKIHNGREGSIEEPELNVSLNLTDDVISNAGTNDNSFNELTDNMSDFVPIDAGLNEAPF
notes: source: E. coli BL21(DE3) RIPL, purified (Talon beads, Superdex 200)
